Experimental data reported in publication PMC4055580, “Simplagrin, a Platelet Aggregation Inhibitor from Simulium nigrimanum Salivary Glands Specifically Binds to the Von Willebrand Factor Receptor in Collagen and Inhibits Carotid Thrombus Formation In Vivo” (PLoS Neglected Tropical Diseases, 2014).

Assays:
[1] = biological target: Simplagrin (Simulium platelet aggregation inhibitor), recombinant (Simulium nigrimanum) (UniProt D1FQ14); experiment: SPR; steady state: Simplagrin immobilised on CM5 (500 RU), soluble collagens as analyte, HBS-P; KD as the analyte concentration at 50% of saturation
[2] = biological target: Soluble human collagen type I (human) (UniProt P02452); experiment: SPR; Simplagrin-CT with collagen type I and III; who was immobilised is not told in what was shown
[3] = biological target: Soluble human collagen type III (human) (UniProt P02461); experiment: as above
[4] = biological target: Simplagrin (Simulium platelet aggregation inhibitor), recombinant (Simulium nigrimanum) (UniProt D1FQ14); experiment: SPR; kinetics: Simplagrin as ligand, RGQOGVMGF peptide as analyte (1-500 nM), 30 µL/min for 180 s, dissociation 600 s, global 1:1 model
[5] = biological target: T1, Soluble human collagen type III (human, UniProt P02461 154-1221); experiment: SPR; kinetics: collagen type I or III immobilised on CM5 by amine coupling, Simplagrin as analyte (0.015-1 µM), 180 s contact at 30 µL/min, 25°C, HBS-P, 1:1 Langmuir model; settings: both partners purified
T1 construct: also called Collagen-III; collagen III; source: bought: R&D Systems
T1 sequence (looked up): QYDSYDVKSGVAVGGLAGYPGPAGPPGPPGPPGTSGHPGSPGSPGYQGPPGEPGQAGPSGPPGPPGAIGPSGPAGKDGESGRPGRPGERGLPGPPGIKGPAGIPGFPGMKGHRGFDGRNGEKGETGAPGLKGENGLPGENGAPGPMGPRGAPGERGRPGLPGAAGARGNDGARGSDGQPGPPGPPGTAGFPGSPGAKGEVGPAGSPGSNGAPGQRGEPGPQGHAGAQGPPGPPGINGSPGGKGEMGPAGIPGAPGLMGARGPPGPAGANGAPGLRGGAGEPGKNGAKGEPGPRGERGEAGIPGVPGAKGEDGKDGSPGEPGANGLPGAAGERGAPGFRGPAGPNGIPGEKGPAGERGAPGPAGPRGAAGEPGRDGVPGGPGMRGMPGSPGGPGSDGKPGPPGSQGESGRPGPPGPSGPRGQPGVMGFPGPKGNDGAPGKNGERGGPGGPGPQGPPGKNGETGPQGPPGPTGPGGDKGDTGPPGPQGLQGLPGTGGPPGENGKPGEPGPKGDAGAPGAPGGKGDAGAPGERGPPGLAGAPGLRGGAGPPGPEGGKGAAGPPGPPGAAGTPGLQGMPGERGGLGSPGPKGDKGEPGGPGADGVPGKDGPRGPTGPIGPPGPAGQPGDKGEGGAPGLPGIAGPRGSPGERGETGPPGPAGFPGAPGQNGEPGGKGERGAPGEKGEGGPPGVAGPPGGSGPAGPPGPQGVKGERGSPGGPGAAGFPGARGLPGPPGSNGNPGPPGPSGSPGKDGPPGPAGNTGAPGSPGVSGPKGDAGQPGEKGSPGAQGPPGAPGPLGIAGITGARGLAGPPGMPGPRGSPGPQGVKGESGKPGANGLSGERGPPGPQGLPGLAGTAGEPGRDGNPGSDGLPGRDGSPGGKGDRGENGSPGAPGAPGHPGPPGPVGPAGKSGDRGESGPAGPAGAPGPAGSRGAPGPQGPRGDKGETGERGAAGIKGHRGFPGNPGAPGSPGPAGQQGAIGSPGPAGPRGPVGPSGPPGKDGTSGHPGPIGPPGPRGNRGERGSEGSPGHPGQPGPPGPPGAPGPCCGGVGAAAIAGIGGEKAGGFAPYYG

[6] = biological target: T2, Soluble human collagen type I (human, UniProt P02452 162-1218; P08123 80-1119); experiment: as above; settings: both partners purified
T2 construct: also called Collagen-I; Col-I; source: bought: R&D Systems

[7] = biological target: T1, Soluble human collagen type III; experiment: ELISA; blocking: collagen type III (0.3 µg/mL) coated, Simplagrin 0.0015-1.5 µM for one hour at 37°C, washed, then 3 nM vWF; detected with anti-human vWF; settings: both partners purified
[8] = biological target: T1, Soluble human collagen type III; experiment: SPR; thermodynamics: Simplagrin (10-500 nM) over immobilised collagen type I or III at 15, 20, 25, 30, 35 and 40°C; 1:1 model, van't Hoff equation; settings: both partners purified
[9] = biological target: T2, Soluble human collagen type I; experiment: as above; settings: both partners purified
[10] = biological target: Soluble human collagen type VI (human, UniProt P12109 20-1028; P12110 21-1019; P12111 26-3177); experiment: SPR; steady state: Simplagrin immobilised on CM5 (500 RU), soluble collagens as analyte, HBS-P; KD as the analyte concentration at 50% of saturation; settings: both partners purified
[11] = biological target: T1, Soluble human collagen type III; experiment: as above; settings: both partners purified
[12] = biological target: T2, Soluble human collagen type I; experiment: as above; settings: both partners purified
[13] = biological target: Soluble human collagen type IV (human, UniProt P02462 173-1669; P08572 184-1712); experiment: as above; settings: both partners purified

T2 sequence (P02452 162-1218, chain 1 of 2): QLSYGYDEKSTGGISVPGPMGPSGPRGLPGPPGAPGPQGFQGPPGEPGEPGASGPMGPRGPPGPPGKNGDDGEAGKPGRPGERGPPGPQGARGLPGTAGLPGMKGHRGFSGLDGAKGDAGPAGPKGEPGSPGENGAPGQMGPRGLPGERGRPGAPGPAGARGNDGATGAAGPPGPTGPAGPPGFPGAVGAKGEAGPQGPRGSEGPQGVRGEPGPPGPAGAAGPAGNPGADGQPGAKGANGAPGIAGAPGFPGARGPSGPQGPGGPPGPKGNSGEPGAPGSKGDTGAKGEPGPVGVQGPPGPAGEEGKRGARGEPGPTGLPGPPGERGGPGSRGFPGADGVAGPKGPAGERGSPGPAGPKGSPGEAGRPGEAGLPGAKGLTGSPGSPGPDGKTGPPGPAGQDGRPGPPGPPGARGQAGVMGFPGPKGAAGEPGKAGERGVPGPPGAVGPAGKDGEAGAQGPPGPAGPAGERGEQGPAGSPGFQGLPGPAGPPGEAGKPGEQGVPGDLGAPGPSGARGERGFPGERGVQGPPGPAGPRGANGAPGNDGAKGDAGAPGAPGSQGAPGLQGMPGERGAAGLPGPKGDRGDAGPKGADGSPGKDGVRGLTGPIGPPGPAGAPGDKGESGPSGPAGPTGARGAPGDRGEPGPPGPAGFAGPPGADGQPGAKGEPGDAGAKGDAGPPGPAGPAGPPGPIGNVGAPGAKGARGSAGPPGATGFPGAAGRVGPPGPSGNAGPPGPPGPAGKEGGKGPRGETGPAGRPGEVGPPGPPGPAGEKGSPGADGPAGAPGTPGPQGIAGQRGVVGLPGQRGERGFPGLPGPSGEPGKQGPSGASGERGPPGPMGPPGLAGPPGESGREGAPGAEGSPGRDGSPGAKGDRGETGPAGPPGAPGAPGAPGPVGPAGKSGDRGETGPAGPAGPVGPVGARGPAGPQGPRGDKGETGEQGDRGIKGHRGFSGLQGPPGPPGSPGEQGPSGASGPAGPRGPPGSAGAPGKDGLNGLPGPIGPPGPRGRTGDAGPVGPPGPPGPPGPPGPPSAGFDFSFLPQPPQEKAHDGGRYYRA
T2 sequence (P08123 80-1119, chain 2 of 2): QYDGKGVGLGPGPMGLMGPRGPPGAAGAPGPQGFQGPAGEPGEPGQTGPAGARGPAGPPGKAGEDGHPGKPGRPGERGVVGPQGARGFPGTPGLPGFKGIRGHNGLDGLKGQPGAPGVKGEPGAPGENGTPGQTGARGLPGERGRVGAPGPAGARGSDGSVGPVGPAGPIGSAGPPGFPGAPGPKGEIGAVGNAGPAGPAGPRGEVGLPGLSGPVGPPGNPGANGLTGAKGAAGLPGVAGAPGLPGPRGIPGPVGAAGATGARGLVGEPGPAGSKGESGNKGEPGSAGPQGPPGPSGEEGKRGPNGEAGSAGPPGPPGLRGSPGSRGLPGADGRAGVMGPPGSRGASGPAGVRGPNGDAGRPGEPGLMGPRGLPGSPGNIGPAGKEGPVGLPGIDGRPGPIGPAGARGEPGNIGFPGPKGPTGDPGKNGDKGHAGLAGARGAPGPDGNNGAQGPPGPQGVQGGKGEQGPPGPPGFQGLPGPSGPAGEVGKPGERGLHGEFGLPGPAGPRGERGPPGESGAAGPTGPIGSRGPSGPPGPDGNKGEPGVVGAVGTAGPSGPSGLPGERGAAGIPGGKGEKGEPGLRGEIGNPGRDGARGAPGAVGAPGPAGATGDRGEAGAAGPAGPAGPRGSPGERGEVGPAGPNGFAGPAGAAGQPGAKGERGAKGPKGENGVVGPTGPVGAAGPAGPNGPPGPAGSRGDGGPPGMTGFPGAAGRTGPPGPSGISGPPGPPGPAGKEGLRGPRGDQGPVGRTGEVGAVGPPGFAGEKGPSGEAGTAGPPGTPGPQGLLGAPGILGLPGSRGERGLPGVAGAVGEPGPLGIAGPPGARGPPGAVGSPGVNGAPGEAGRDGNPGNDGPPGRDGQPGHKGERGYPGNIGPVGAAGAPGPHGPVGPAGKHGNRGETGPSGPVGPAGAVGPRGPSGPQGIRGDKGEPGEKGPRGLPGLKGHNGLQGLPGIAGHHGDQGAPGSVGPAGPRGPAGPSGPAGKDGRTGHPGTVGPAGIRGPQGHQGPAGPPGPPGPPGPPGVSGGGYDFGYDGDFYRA
Sequence of Soluble human collagen type I (human) (P02452 162-1218, chain 1 of 2): as the sequence (P02452 162-1218, chain 1 of 2) above
Sequence of Soluble human collagen type I (human) (P08123 80-1119, chain 2 of 2, further chain): as the sequence (P08123 80-1119, chain 2 of 2) above

Collagen type I from rat tail (from UniProt P02454 23-1207; P02466 86-1125) (natural protein)
Kd [1]: 12.4 nM

Soluble human collagen type V (from UniProt P20908 38-1605; P05997 27-1229) (natural protein)
Kd [1]: 10.8 nM

Simplagrin carboxy-terminus domain (Simplagrin-CT) (domain or fragment)
Kd [2]: 285 nM | Kd [3]: 162 nM

RGQOGVMGF collagen-derived peptide (vWF-recognition peptide)
Kd [4]: 11.1 nM | koff [4]: 0.00048 s⁻¹ | kon [4]: 727000 M⁻¹ s⁻¹

B1: Simplagrin (Simulium platelet aggregation inhibitor), recombinant (natural protein, Simulium nigrimanum, UniProt D1FQ14 21-286, looked up)
chain: SPIPDEESEETEDAEQEEDAEEEEHAEEEAQEDGDQTQDTDQESDDGQEETANQGSDEQQEEDGSHGTDETDDEAAGSRTEDVESGGDEQNDGEENGSQENGEEVTGGEDDSHGAQDSEGGEEDAAAQEAGGKKSKGKGAKGGQGSNRAGSSSGGEESAAHTYQEVMRILNGIKINAKEPLKSRLVNGLQYLKVDTINRVENIQKFSRIEHCFGNLDHIVQLYAGDAVERNDYCKGTCIDMVSNEFRGQMEELTSRLYPCLQGGYY
notes: Simplagrin (cluster Sim-50), salivary gland protein of Simulium nigrimanum; precursor of 286 aa with a predicted signal peptide of 20 aa; the construct holds the mature protein and a 6X-His tag before the stop codon; Synthetic codon optimised gene in the VR2001 TOPO vector; also called Sim-50; recombinant Simplagrin; source: FreeStyle293 F (HEK293) cells, transfected, secreted; purified (Ni2+ …)
Kd [5]: 2.1 nM | koff [5]: 0.00031 s⁻¹ | kon [5]: 148000 M⁻¹ s⁻¹ | Kd [6]: 5.51 nM | IC50 [7]: ~100 nM | dH [8]: -12.9 kcal/mol | dH [9]: -4.54 kcal/mol | Kd [10]: 23.3 nM | Kd [11]: 9.72 nM | Kd [12]: 10.3 nM | Kd [13]: 27.6 nM
